Here are results for 20 molecules from patent US20260274985A1 (MYTHIC THERAPEUTICS, published 2026).

This assay has as its target T1, TROP2 on TROP2-positive NCI-H1975 cells (human, UniProt P09758 27-323).
T1 sequence: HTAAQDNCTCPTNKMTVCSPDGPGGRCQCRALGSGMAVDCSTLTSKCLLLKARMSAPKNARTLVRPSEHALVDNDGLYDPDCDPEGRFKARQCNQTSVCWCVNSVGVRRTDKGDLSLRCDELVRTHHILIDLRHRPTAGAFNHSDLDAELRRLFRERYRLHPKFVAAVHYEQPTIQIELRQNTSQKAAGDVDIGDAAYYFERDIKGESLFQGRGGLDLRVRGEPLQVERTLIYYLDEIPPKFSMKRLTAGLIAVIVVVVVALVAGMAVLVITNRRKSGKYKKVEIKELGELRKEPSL
Briefly: cell-based or functional assay.

B1: MYT13429 (antibody, V domains shown)
VH: QVQLQQSGSELKKPGASVKVSCKASGYTFTNYGMNWVKQAPGQGLKWMGWINTYTGEPTYTDDFKHRFAFSLDTSVSTAYLQISSLKADDTAVYFCARGGFGSSYWYFDVWGQGSLVTVSS
VL: DIQLTQSPSSLSASVGDRVSITCKASQDVHIAVAWYQQKPGKAPKLLIYSHSYRYTGVPDRFSGSGSGTDFTLTISSLQPEDFAVYYCQQHYHTPLTFGAGTKVEIK
As to B1, the “FOW H1975 (10 nM)” value is 1.83 fold over parent antibody.

B2: MYT13386 (antibody, V domains shown)
VH: QVQLQQSGSELKKPGASVKVSCKASGYTFTNYGMNWVKQAPGQGLKWMGWINTYTGEPTYTDHFKGRFAFSLDTSVSTAYLQISSLKADDTAVYFCARGGFGSSYWYFDVWGQGSLVTVSS
VL: DIQLTQSPSSLSASVGDRVSITCKASQDVHIAVAWYQQKPGKAPKLLIYSAHYRYTGVPDRFSGSGSGTDFTLTISSLQPEDFAVYYCQQHYITPLTFGAGTKVEIK
On to B2, for which the “FOW H1975 (10 nM)” value came to 1.71 fold over parent antibody.

B3: MYT13421 (antibody, V domains shown)
VH: QVQLQQSGSELKKPGASVKVSCKASGYTFTNYGMNWVKQAPGQGLKWMGWINTYTGEPTYTDDFKHRFAFSLDTSVSTAYLQISSLKADDTAVYFCARGGFGSSYWYFDVWGQGSLVTVSS
VL: DIQLTQSPSSLSASVGDRVSITCKASQDVHIAVAWYQQKPGKAPKLLIYSHSYRYTGVPDRFSGSGSGTDFTLTISSLQPEDFAVYYCHQHYITPLTFGAGTKVEIK
With B3, the “FOW H1975 (10 nM)” value stood at 1.42 fold over parent antibody.

B4: MYT13417 (antibody, V domains shown)
VH: QVQLQQSGSELKKPGASVKVSCKASGYTFTNYGMNWVKQAPGQGLKWMGWINTYTGEPTYTHDFKGRFAFSLDTSVSTAYLQISSLKADDTAVYFCARGGFGSSYWYFDVWGQGSLVTVSS
VL: DIQLTQSPSSLSASVGDRVSITCKASQDVHIAVAWYQQKPGKAPKLLIYSHSYRYTGVPDRFSGSGSGTDFTLTISSLQPEDFAVYYCHQHYITPLTFGAGTKVEIK
As for B4, the “FOW H1975 (10 nM)” value is 1.76 fold over parent antibody.

B5: MYT13366 (antibody, V domains shown)
VH: QVQLQQSGSELKKPGASVKVSCKASGYTFTNHGMNWVKQAPGQGLKWMGWINTYTGEPTYTDDFKGRFAFSLDTSVSTAYLQISSLKADDTAVYFCARGGFGSSYWYFDVWGQGSLVTVSS
VL: DIQLTQSPSSLSASVGDRVSITCKASQDVHIAHAWYQQKPGKAPKLLIYSASYRYTGVPDRFSGSGSGTDFTLTISSLQPEDFAVYYCQQHYITPLTFGAGTKVEIK
In the case of B5, the “FOW H1975 (10 nM)” value amounted to 1.35 fold over parent antibody.

B6: MYT13420 (antibody, V domains shown)
VH: QVQLQQSGSELKKPGASVKVSCKASGYTFTNYGMNWVKQAPGQGLKWMGWINTYTGEPTYTDDFHGRFAFSLDTSVSTAYLQISSLKADDTAVYFCARGGFGSSYWYFDVWGQGSLVTVSS
VL: DIQLTQSPSSLSASVGDRVSITCKASQDVHIAVAWYQQKPGKAPKLLIYSHSYRYTGVPDRFSGSGSGTDFTLTISSLQPEDFAVYYCHQHYITPLTFGAGTKVEIK
In the case of B6, the “FOW H1975 (10 nM)” value is 1.34 fold over parent antibody.

B7: MYT13371 (antibody, V domains shown)
VH: QVQLQQSGSELKKPGASVKVSCKASGYTFTNYGMNWVKQAPGQGLKWMGWINTYTGEPTYTDDHKGRFAFSLDTSVSTAYLQISSLKADDTAVYFCARGGFGSSYWYFDVWGQGSLVTVSS
VL: DIQLTQSPSSLSASVGDRVSITCKASQDVHIAHAWYQQKPGKAPKLLIYSASYRYTGVPDRFSGSGSGTDFTLTISSLQPEDFAVYYCQQHYITPLTFGAGTKVEIK
For the molecule B7, the “FOW H1975 (10 nM)” value was 1.51 fold over parent antibody.

B8: MYT13376 (antibody, V domains shown)
VH: QVQLQQSGSELKKPGASVKVSCKASGYTFTNYGMNWVKQAPGQGLKWMGWINTYTGEPTHTDDFKGRFAFSLDTSVSTAYLQISSLKADDTAVYFCARGGFGSSYWYFDVWGQGSLVTVSS
VL: DIQLTQSPSSLSASVGDRVSITCKASQDVHIAVAWYQQKPGKAPKLLIYSHSYRYTGVPDRFSGSGSGTDFTLTISSLQPEDFAVYYCQQHYITPLTFGAGTKVEIK
Regarding B8, the “FOW H1975 (10 nM)” value was determined as 1.42 fold over parent antibody.

B9: MYT13378 (antibody, V domains shown)
VH: QVQLQQSGSELKKPGASVKVSCKASGYTFTNYGMNWVKQAPGQGLKWMGWINTYTGEPTYTDHFKGRFAFSLDTSVSTAYLQISSLKADDTAVYFCARGGFGSSYWYFDVWGQGSLVTVSS
VL: DIQLTQSPSSLSASVGDRVSITCKASQDVHIAVAWYQQKPGKAPKLLIYSHSYRYTGVPDRFSGSGSGTDFTLTISSLQPEDFAVYYCQQHYITPLTFGAGTKVEIK
As for B9, the “FOW H1975 (10 nM)” value worked out at 1.4 fold over parent antibody.

B10: MYT13426 (antibody, V domains shown)
VH: QVQLQQSGSELKKPGASVKVSCKASGYTFTNYGMNWVKQAPGQGLKWMGWINTYTGEPTYTDHFKGRFAFSLDTSVSTAYLQISSLKADDTAVYFCARGGFGSSYWYFDVWGQGSLVTVSS
VL: DIQLTQSPSSLSASVGDRVSITCKASQDVHIAVAWYQQKPGKAPKLLIYSHSYRYTGVPDRFSGSGSGTDFTLTISSLQPEDFAVYYCQQHYHTPLTFGAGTKVEIK
Turning to B10, the “FOW H1975 (10 nM)” value was determined as 1.71 fold over parent antibody.

B11: MYT13368 (antibody, V domains shown)
VH: QVQLQQSGSELKKPGASVKVSCKASGYTFTNYGMNWVKQAPGQGLKWMGWINTYTGEPTHTDDFKGRFAFSLDTSVSTAYLQISSLKADDTAVYFCARGGFGSSYWYFDVWGQGSLVTVSS
VL: DIQLTQSPSSLSASVGDRVSITCKASQDVHIAHAWYQQKPGKAPKLLIYSASYRYTGVPDRFSGSGSGTDFTLTISSLQPEDFAVYYCQQHYITPLTFGAGTKVEIK
On to B11, for which the “FOW H1975 (10 nM)” value came to 1.43 fold over parent antibody.

B12: MYT13432 (antibody, V domains shown)
VH: QVQLQQSGSELKKPGASVKVSCKASGYTFTNYGMNWVKQAPGQGLKWMGWINTYTGEPTHTDDFKGRFAFSLDTSVSTAYLQISSLKADDTAVYFCARGGFGSSYWYFDVWGQGSLVTVSS
VL: DIQLTQSPSSLSASVGDRVSITCKASQDVSIAVAWYQQKPGKAPKLLIYSHSHRYTGVPDRFSGSGSGTDFTLTISSLQPEDFAVYYCQQHYHTPLTFGAGTKVEIK
On to B12, for which the “FOW H1975 (10 nM)” value came out at 1.4 fold over parent antibody.

B13: MYT13434 (antibody, V domains shown)
VH: QVQLQQSGSELKKPGASVKVSCKASGYTFTNYGMNWVKQAPGQGLKWMGWINTYTGEPTYTDHFKGRFAFSLDTSVSTAYLQISSLKADDTAVYFCARGGFGSSYWYFDVWGQGSLVTVSS
VL: DIQLTQSPSSLSASVGDRVSITCKASQDVSIAVAWYQQKPGKAPKLLIYSHSHRYTGVPDRFSGSGSGTDFTLTISSLQPEDFAVYYCQQHYHTPLTFGAGTKVEIK
Turning to B13, the “FOW H1975 (10 nM)” value amounted to 1.46 fold over parent antibody.

B14: MYT13373 (antibody, V domains shown)
VH: QVQLQQSGSELKKPGASVKVSCKASGYTFTNYGMNWVKQAPGQGLKWMGWINTYTGEPTYTDDFKHRFAFSLDTSVSTAYLQISSLKADDTAVYFCARGGFGSSYWYFDVWGQGSLVTVSS
VL: DIQLTQSPSSLSASVGDRVSITCKASQDVHIAHAWYQQKPGKAPKLLIYSASYRYTGVPDRFSGSGSGTDFTLTISSLQPEDFAVYYCQQHYITPLTFGAGTKVEIK
On to B14, for which the “FOW H1975 (10 nM)” value was determined as 1.6 fold over parent antibody.

B15: MYT13424 (antibody, V domains shown)
VH: QVQLQQSGSELKKPGASVKVSCKASGYTFTNYGMNWVKQAPGQGLKWMGWINTYTGEPTHTDDFKGRFAFSLDTSVSTAYLQISSLKADDTAVYFCARGGFGSSYWYFDVWGQGSLVTVSS
VL: DIQLTQSPSSLSASVGDRVSITCKASQDVHIAVAWYQQKPGKAPKLLIYSHSYRYTGVPDRFSGSGSGTDFTLTISSLQPEDFAVYYCQQHYHTPLTFGAGTKVEIK
As for B15, the “FOW H1975 (10 nM)” value was 1.71 fold over parent antibody.

B16: MYT13437 (antibody, V domains shown)
VH: QVQLQQSGSELKKPGASVKVSCKASGYTFTNYGMNWVKQAPGQGLKWMGWINTYTGEPTYTDDFKHRFAFSLDTSVSTAYLQISSLKADDTAVYFCARGGFGSSYWYFDVWGQGSLVTVSS
VL: DIQLTQSPSSLSASVGDRVSITCKASQDVSIAVAWYQQKPGKAPKLLIYSHSHRYTGVPDRFSGSGSGTDFTLTISSLQPEDFAVYYCQQHYHTPLTFGAGTKVEIK
On to B16, for which the “FOW H1975 (10 nM)” value was found to be 1.49 fold over parent antibody.

B17: MYT13374 (antibody, V domains shown)
VH: QVQLQQSGSELKKPGASVKVSCKASGYTFTNHGMNWVKQAPGQGLKWMGWINTYTGEPTYTDDFKGRFAFSLDTSVSTAYLQISSLKADDTAVYFCARGGFGSSYWYFDVWGQGSLVTVSS
VL: DIQLTQSPSSLSASVGDRVSITCKASQDVHIAVAWYQQKPGKAPKLLIYSHSYRYTGVPDRFSGSGSGTDFTLTISSLQPEDFAVYYCQQHYITPLTFGAGTKVEIK
On to B17, for which the “FOW H1975 (10 nM)” value turned out to be 1.37 fold over parent antibody.

B18: MYT13433 (antibody, V domains shown)
VH: QVQLQQSGSELKKPGASVKVSCKASGYTFTNYGMNWVKQAPGQGLKWMGWINTYTGEPTYTHDFKGRFAFSLDTSVSTAYLQISSLKADDTAVYFCARGGFGSSYWYFDVWGQGSLVTVSS
VL: DIQLTQSPSSLSASVGDRVSITCKASQDVSIAVAWYQQKPGKAPKLLIYSHSHRYTGVPDRFSGSGSGTDFTLTISSLQPEDFAVYYCQQHYHTPLTFGAGTKVEIK
B18: the “FOW H1975 (10 nM)” value worked out at 1.82 fold over parent antibody.

B19: MYT13418 (antibody, V domains shown)
VH: QVQLQQSGSELKKPGASVKVSCKASGYTFTNYGMNWVKQAPGQGLKWMGWINTYTGEPTYTDHFKGRFAFSLDTSVSTAYLQISSLKADDTAVYFCARGGFGSSYWYFDVWGQGSLVTVSS
VL: DIQLTQSPSSLSASVGDRVSITCKASQDVHIAVAWYQQKPGKAPKLLIYSHSYRYTGVPDRFSGSGSGTDFTLTISSLQPEDFAVYYCHQHYITPLTFGAGTKVEIK
In the case of B19, the “FOW H1975 (10 nM)” value amounted to 1.51 fold over parent antibody.

B20: MYT13379 (antibody, V domains shown)
VH: QVQLQQSGSELKKPGASVKVSCKASGYTFTNYGMNWVKQAPGQGLKWMGWINTYTGEPTYTDDHKGRFAFSLDTSVSTAYLQISSLKADDTAVYFCARGGFGSSYWYFDVWGQGSLVTVSS
VL: DIQLTQSPSSLSASVGDRVSITCKASQDVHIAVAWYQQKPGKAPKLLIYSHSYRYTGVPDRFSGSGSGTDFTLTISSLQPEDFAVYYCQQHYITPLTFGAGTKVEIK
On to B20, for which the “FOW H1975 (10 nM)” value is 1.33 fold over parent antibody.
